Assay results published in paper PMC12479363 (Nature Immunology, 2025).

Biological target: SK56
Assay: MST

Kd: ~220 nM
B1: GSDMC-NT–GFP (domain or fragment)
chain: MPSMLERISKNLVKEIGSKDLTPVKYLLSATKLRQFVILRKKKDSRSSFWEQSDYVPVEFSLNDILEPSSSVLETVVTGPFHFSDIMIQKHKADMGVNVGIEVSVSGEASVDHGCSLEFQIVTIPSPNLEDFQKRKLLDPEPSFLKECRRRGDNLYVVTEAVELINNTVLYDSSSVNILGKIALWITYGKGQGQGESLRVKKKALTLQKGMVMAYKRKQLVIKEKAILISDDDEQRTFQD
